A word on the Kd: it is the concentration at which binding is half-saturated.

For the assay, the target named is T1, Gab2 448-460 (Homo sapiens).
T1 chain: Dansyl-TNSEDN[pY]VPMNPG
Briefly: stopped-flow FRET.

Where no end group is shown, it is not given here. [ ]: non-standard residue; d: D form. The star is where a group is joined. pY = N[C@@H](Cc1ccc(OP(=O)(O)O)cc1)C(=O)O; Dansyl = CN(C)c1cccc2c(S(=O)(=O)*)cccc12

B1: PI3K p85alpha N-SH2 N-SH2 (protein)
chain: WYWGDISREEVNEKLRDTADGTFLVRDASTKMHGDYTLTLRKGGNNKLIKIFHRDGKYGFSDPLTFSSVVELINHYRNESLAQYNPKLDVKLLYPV
With B1, binding was put at a Kd of 200 nM.

The values above are taken from publication PMC7247818 (2020).
